Source: patent US20200173960A1
pKd: −log10 of the molar value.

Columns and labels:
bevacizumab [1] = experiment: Bevacizumab PK ELISA (anti-idiotype capture) of bevacizumab 0.5 ug/mL pre-bound with ADA; bevacizumab:ADA 1:5
bevacizumab [2] = experiment: Bevacizumab PK ELISA (anti-idiotype capture) of bevacizumab 50 ug/mL pre-bound with ADA; bevacizumab:ADA 5:1
bevacizumab [3] = experiment: cell-based or functional assay
bevacizumab [4] = experiment: Bevacizumab PK ELISA (anti-idiotype capture) of bevacizumab 50 ug/mL pre-bound with ADA; bevacizumab:ADA 10:1
bevacizumab [5] = experiment: Bevacizumab PK ELISA (anti-idiotype capture) of bevacizumab 0.5 ug/mL pre-bound with ADA; bevacizumab:ADA 1:10
bevacizumab [6] = experiment: Bevacizumab PK ELISA (anti-idiotype capture) of bevacizumab 0.5 ug/mL pre-bound with ADA; bevacizumab:ADA 5:1
bevacizumab [7] = experiment: Bevacizumab PK ELISA (anti-idiotype capture) of bevacizumab 0.5 ug/mL pre-bound with ADA; bevacizumab:ADA 1:50
bevacizumab [8] = experiment: Bevacizumab PK ELISA (anti-idiotype capture) of bevacizumab 0.5 ug/mL pre-bound with ADA; bevacizumab:ADA 1:1
bevacizumab [9] = experiment: Bevacizumab PK ELISA (anti-idiotype capture) of bevacizumab 0.5 ug/mL pre-bound with ADA; bevacizumab:ADA 1:100
bevacizumab [10] = experiment: Bevacizumab PK ELISA (anti-idiotype capture) of bevacizumab 50 ug/mL pre-bound with ADA; bevacizumab:ADA 100:1
bevacizumab [11] = experiment: Bevacizumab PK ELISA (anti-idiotype capture) of bevacizumab 50 ug/mL pre-bound with ADA; bevacizumab:ADA 1:1
bevacizumab [12] = experiment: method not stated; affinity listed for the purchased ADA
bevacizumab [13] = experiment: Bevacizumab PK ELISA (anti-idiotype capture) of bevacizumab 0.5 ug/mL pre-bound with ADA; bevacizumab:ADA 1:2
bevacizumab [14] = experiment: Bevacizumab PK ELISA (anti-idiotype capture) of bevacizumab 0.5 ug/mL pre-bound with ADA; bevacizumab:ADA 10:1

## HCA185 (antibody)
Bevacizumab [1]
  Accuracy (%) ELISA: 39.6%
Bevacizumab [2]
  Accuracy (%) ELISA: 76.2%
Bevacizumab [3]
  Accuracy (%) nSMOL; bevacizumab 0.5 ug/mL; bevacizumab:ADA 1:1: 95.5%
  Accuracy (%) nSMOL; bevacizumab 0.5 ug/mL; bevacizumab:ADA 1:2: 82.1%
  Accuracy (%) nSMOL; bevacizumab 0.5 ug/mL; bevacizumab:ADA 1:5: 54.8%
  Accuracy (%) nSMOL; bevacizumab 0.5 ug/mL; bevacizumab:ADA 1:10: 22.8%
  Accuracy (%) nSMOL; bevacizumab 0.5 ug/mL; bevacizumab:ADA 1:50: 22.9%
  Accuracy (%) nSMOL; bevacizumab 0.5 ug/mL; bevacizumab:ADA 1:100: 23.1%
  Accuracy (%) nSMOL; bevacizumab 0.5 ug/mL; bevacizumab:ADA 5:1: 105%
  Accuracy (%) nSMOL; bevacizumab 0.5 ug/mL; bevacizumab:ADA 10:1: 107%
  Accuracy (%) nSMOL; bevacizumab 50 ug/mL; bevacizumab:ADA 1:1: 75.7%
  Accuracy (%) nSMOL; bevacizumab 50 ug/mL; bevacizumab:ADA 5:1: 90.3%
  Accuracy (%) nSMOL; bevacizumab 50 ug/mL; bevacizumab:ADA 10:1: 95.8%
  Accuracy (%) nSMOL; bevacizumab 50 ug/mL; bevacizumab:ADA 100:1: 100%
  Accuracy (%) nSMOL; bevacizumab first immobilized on Protein A; bevacizumab:ADA 1:1: 58.9%
  Accuracy (%) nSMOL; bevacizumab first immobilized on Protein A; bevacizumab:ADA 5:1: 90%
  Accuracy (%) nSMOL; bevacizumab first immobilized on Protein A; bevacizumab:ADA 10:1: 106%
  Accuracy (%) nSMOL; bevacizumab first immobilized on Protein A; bevacizumab:ADA 100:1: 105%
  inhibitory effect on quantification values (nSMOL), ratio 1:1: 50%
Bevacizumab [4]
  Accuracy (%) ELISA: 84.1%
Bevacizumab [5]
  Accuracy (%) ELISA: 38.9%
Bevacizumab [6]
  Accuracy (%) ELISA: 86.6%
Bevacizumab [7]
  Accuracy (%) ELISA: 37.2%
Bevacizumab [8]
  Accuracy (%) ELISA: 73.5%
Bevacizumab [9]
  Accuracy (%) ELISA: 35.2%
Bevacizumab [10]
  Accuracy (%) ELISA: 95.6%
Bevacizumab [11]
  Accuracy (%) ELISA: 76.8%
Bevacizumab [12]
  pKd: 9.40
Bevacizumab [13]
  Accuracy (%) ELISA: 55.8%
Bevacizumab [14]
  Accuracy (%) ELISA: 104%
